From patent US20240336701A1 (Novartis, published 2024)

T1: human ENTPD2, full length, on cells (human, UniProt Q9Y5L3 1-495)
T1 sequence: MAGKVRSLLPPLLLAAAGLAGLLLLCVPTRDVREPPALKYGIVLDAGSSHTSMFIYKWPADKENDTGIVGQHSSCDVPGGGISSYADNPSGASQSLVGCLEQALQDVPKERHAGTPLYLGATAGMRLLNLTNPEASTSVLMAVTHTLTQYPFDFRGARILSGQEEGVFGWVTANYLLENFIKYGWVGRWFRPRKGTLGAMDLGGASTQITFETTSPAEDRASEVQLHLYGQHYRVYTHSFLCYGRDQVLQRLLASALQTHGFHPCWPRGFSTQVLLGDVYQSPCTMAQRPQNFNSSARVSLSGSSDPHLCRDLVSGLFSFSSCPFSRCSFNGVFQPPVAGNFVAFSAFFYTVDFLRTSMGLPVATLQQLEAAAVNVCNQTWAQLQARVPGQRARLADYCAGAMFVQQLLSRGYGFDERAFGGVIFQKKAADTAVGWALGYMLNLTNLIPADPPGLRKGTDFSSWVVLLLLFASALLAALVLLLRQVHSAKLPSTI

T2: cynomolgus ENTPD2, full length, on cells (cynomolgus macaque, UniProt Q9Y5L3 1-495 (human entry))
T2 chain: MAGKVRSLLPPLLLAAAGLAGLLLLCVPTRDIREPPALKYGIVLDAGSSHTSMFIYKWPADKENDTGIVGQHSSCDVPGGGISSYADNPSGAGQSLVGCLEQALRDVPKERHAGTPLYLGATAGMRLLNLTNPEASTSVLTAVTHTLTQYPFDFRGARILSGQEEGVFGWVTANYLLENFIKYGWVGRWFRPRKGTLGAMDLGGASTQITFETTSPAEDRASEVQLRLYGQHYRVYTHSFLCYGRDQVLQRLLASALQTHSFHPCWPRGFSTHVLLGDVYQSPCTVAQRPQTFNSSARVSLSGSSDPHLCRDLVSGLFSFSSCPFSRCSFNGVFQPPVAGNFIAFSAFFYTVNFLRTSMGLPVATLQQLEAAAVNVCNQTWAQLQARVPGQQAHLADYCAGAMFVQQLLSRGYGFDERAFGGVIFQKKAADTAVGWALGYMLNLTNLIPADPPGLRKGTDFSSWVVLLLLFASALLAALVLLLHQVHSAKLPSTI


Experiments:
Assay in all cases: cell-based or functional assay
[1] = target: T1, human ENTPD2, full length, on cells
[2] = target: T2, cynomolgus ENTPD2, full length, on cells
[3] = target: recombinant human ENTPD2 extracellular domain (residues 29-462) with C-terminal Avi-His6 tag (human, UniProt Q9Y5L3 29-462)

Row | Binder | Human ENTPD2 NIH/3T3 Assay % inhibition [1] [%] | Human ENTPD2 NIH/3T3 Assay IC50 [1] [nM] | Cyno ENTPD2 NIH/3T3 Assay % inhibition [2] [%] | Cyno ENTPD2 NIH/3T3 Assay IC50 [2] [nM] | RKO Assay % inhibition [1] [%] | RKO Assay IC50 [1] [nM] | ENTPD2 Biochemical Assay at 1 uM ATP IC50 [3] [nM]
1 | ANTI-HUMAN ENTPD2 MAB18 (antibody, human IgG1, kappa, V domains shown) VH: DIQLQESGPGLVKPSQSLSLTCSVTGYSITSGYYWNWIRQFPGNKLEWMGYISYDGDNNYNPSLKNRISITRDTSKNQFFLKLSSVTTEDTATYYCAGGYYRYGLGSYSGSYYYVMDYWGQGTSVTVSS VL: DTVLTQSPASLAVSLGQRATISCKASQSVDYDGNSYMNWYQQKPGQPPKLLIYAASNLESGIPARFSGSGSGTDFTLNIHPVEEEDAATYYCQQSNEDPPTFGGGTKLEIKR | 88 | 0.4 | 68 | 20 |  |  | 
2 | ANTI-HUMAN ENTPD2 MAB4 (antibody, human IgG1, kappa, V domains shown) VH: QIQLQESGPGLVKPSQTLSLTCTVSGYSITSGYYWNWIRQHPGKGLEWIGYISYDADNNYNPSLKNRVTISRDTSKNQFSLKLSSVTAADTAVYYCAGGYYRYGLGSYRGSYYYVMDYWGQGTTVTVSS VL: ETVLTQSPATLSVSPGERATISCKASQSVDYEGHSYMNWYQQKPGQAPRLLIYAASNLESGIPARFSGSGSGTDFTLTISSVEPEDAATYYCQQSNEDPPTFGGGTKLEIKR | 87 | 0.2 | 75 | 2.2 | 74 | 0.2 | 
3 | ANTI-HUMAN ENTPD2 MAB6 (antibody, human IgG1, kappa, V domains shown) VH: QVQLQESGPGLVKPSQTLSLTCTVSGYSITSGYYWNWIRQHPGKGLEWMGYISYDADNNYNPSLKNRITISRDTSKNQFSLKLSSVTAADTAVYYCAGGYYRYGLGSYSGSYYYVMDYWGQGTTVTVSS VL: DTQMTQSPSSLSVSVGDRATITCKASQSVDYEGHSYMNWYQQKPGKAPKLLIYAASNLESGVPSRFSGSGSGTDFTLTISSVQPEDFATYYCQQSNEDPPTFGGGTKLEIKR | 95 | 0.3 | 73 | 3.3 | 90 | 0.2 | 
4 | ANTI-HUMAN ENTPD2 MAB5 (antibody, human IgG1, kappa, V domains shown) VH: QIQLQESGPGLVKPSQTLSLTCTVSGYSITSGYYWNWIRQHPGKGLEWIGYISYDADNNYNPSLKNRVTISRDTSKNQFSLKLSSVTAADTAVYYCAGGYYRYGLGSYRGSYYYVMDYWGQGTTVTVSS VL: ETVLTQSPATLSVSPGERATISCKASQSVDYDGNSYMNWYQQKPGQAPRLLIYAASNLESGIPARFSGSGSGTDFTLTISSVEPEDAATYYCQQSNEDPPTFGGGTKLEIKR | 95 | 0.3 | 80 | 1.5 | 80 | 0.2 | 
5 | ANTI-HUMAN ENTPD2 MAB8 (antibody, human IgG1, lambda, V domains shown) VH: QVQLQQSGPGLVKPSQTLSLTCAISGDSVSSSSAAWNWIRQSPSRGLEWLGRIYYRSKWYNDYAVSVKSRITINPDTSKNQFSLQLNSVTPEDTAVYYCARGSYVTSSYEGFDYWGQGTLVTVSS VL: SYELTQPLSVSVALGQTARITCSGDNLPEKYAYWYQQKPGQAPVLVIYDDNKRPSGIPERFSGSNSGNTATLTISRAQAGDEADYYCQSYGKWGWTWVFGGGTKLTVLG | 97 | 0.1 | 96 | 0.9 | 95 | 0.2 | 
6 | ANTI-HUMAN ENTPD2 MAB19 (antibody, human IgG1, kappa, V domains shown) VH: EVQLQQFGAELVKPGTSVKISCKASGYTFTDYNMDWVKQSHGKSLEWIGDINPNYDITTYNQRFKGKATLTVDKSSSTAYMELRSLTSEDTAVYYCARRGFFPYYGNSYYYFDVWGAGTTVTVSS VL: QIVLTQSPTIMSASLGEEITLTCSASSSVSYMHWYQQKSGTSPKLLIYSTSNLASGVPSRFSGSGSGTFYSLTISSVEAEDAADYYCHQWSNYPWTFGGGTKLEIKR |  |  |  |  |  |  | 4.09
7 | ANTI-HUMAN ENTPD2 MAB20 (antibody, human IgG1, kappa, V domains shown) VH: EVQLQQFGAELVKPGASVKISCKASGYTFTDYNMDWVKQSHGKSLEWIGDINPNYDITSYNQKFKGKATLTVDKSSSTAYMELRSLTSEDTAVYYCARRGFFLYYGSSYYYFDVWGAGTTVTVSS VL: QIVLTQSPAIMSASLGEEITLTCSASSSVSYMHWYQQKSGTSPKLLIYSTSNLASGVPSRFSGSGSGTFYSLTISSVEAEDAADYYCHQWSSYPWTFGGGTKLEIKR |  |  |  |  |  |  | 17.5
8 | ANTI-HUMAN ENTPD2 MAB9 (antibody, human IgG1, lambda, V domains shown) VH: QVQLVQSGAEVKKPGSSVKVSCKASGGTFDSYAVSWVRQAPGQGLEWMGRIVPWLGHTQYAQKFQGRVTITADESTSTAYMELSSLRSEDTAVYYCARESPGYRYSFDVWDQGTLVTVSS VL: SYELTQPLSVSVALGQTARITCSGDAIGEKYVYWYQQKPGQAPVLVIYDDNNRPSGIPERFSGSNSGNTATLTISRAQAGDEADYYCASYDLQQARWVFGGGTKLTVLG | 92 | 0.3 | 71 | 0.3 | 70 | 0.1 | 
9 | ANTI-HUMAN ENTPD2 MAB10 (antibody, human IgG1, lambda, V domains shown) VH: QVQLVQSGAEVKKPGSSVKVSCKASGGTFDSYAVSWVRQAPGQGLEWMGRIVPWLGFTRYAQKFQGRVTITADESTSTAYMELSSLRSEDTAVYYCARESPGYRYSFDVWDQGTLVTVSS VL: SYELTQPLSVSVALGQTARITCSGDAIGEKYVYWYQQKPGQAPVLVIYDDNNRPSGIPERFSGSNSGNTATLTISRAQAGDEADYYCASYDLQQARWVFGGGTKLTVLG | 88 | 0.4 | 86 | 0.5 | 77 | 0.2 | 
10 | ANTI-HUMAN ENTPD2 MAB12 (antibody, human IgG1, kappa, V domains shown) VH: EVLLVESGGGLVQPGGSLRLSCAASGFTFNSCSMNWVRQAPGKGLEWVSYISSSSSTIYYADSVKGRFTISRDNAKNSLYLQMNSLKDEDTAVYYCARDQGNWNYDDYYNGLDVWGQGTTVTVSS VL: not shown | 68 | 26.6 |  |  |  |  | 
11 | ANTI-HUMAN ENTPD2 MAB2 (antibody, human IgG1, kappa) heavy: not shown light: EIVLTQSPATLSASPGERITLSCSASSSVSYIHWYQQKPGQAPRLLIYSTSNLASGIPARFSGSGSGTFYTLTISSVEPEDAAVYYCHQWSSYPWTFGGGTKLEIKRTVAAPSVFIFPPSDEQLKSGTASVVCLLNNFYPREAKVQWKVDNALQSGNSQESVTEQDSKDSTYSLSSTLTLSKADYEKHKVYACEVTHQGLSSPVTKSFNRGEC | 98 | 1.4 | 84 | 2.7 | 86 | 0.8 | 
12 | ANTI-HUMAN ENTPD2 MAB7 (antibody, human IgG1, kappa) heavy: not shown light: EIVLTQSPATLSASPGEEITLSCSASSSVSYIHWYQQKPGQAPRLLIYSTSNLASGIPARFSGSGSGTFYTLTISSVEPEDAAVYYCHQWSSYPWTFGGGTKLEIKRTVAAPSVFIFPPSDEQLKSGTASVVCLLNNFYPREAKVQWKVDNALQSGNSQESVTEQDSKDSTYSLSSTLTLSKADYEKHKVYACEVTHQGLSSPVTKSFNRGEC | 95 | 0.8 | 82 | 2.7 | 92 | 0.6 | 
13 | ANTI-HUMAN ENTPD2 MAB3 (antibody, human IgG1, kappa, V domains shown) VH: QVQLVQSGAEVVKPGASVKISCKASGYTFTDYNMDWVKQAPGQRLEWIGDINPKYDISTYNQQFKGKATITVDTSASTAYMELSSLRSEDTAVYYCARRGFFLYYGINYYYFDVWGQGTLVTVSS VL: EIVLTQSPATLSASPGERITLSCSASSSVSYIHWYQQKPGQAPRLLIYSTSNLASGIPARFSGSGSGTFYTLTISSVEPEDAAVYYCHQWSSYPWTFGGGTKLEIKR | 91 | 1.8 | 84 | 5.8 | 95 | 1.6 | 
14 | ANTI-HUMAN ENTPD2 MAB11 (antibody, human IgG1, kappa, V domains shown) VH: EVQLLESGGGLVQSGGSLRLSCAASGFTFSSYAMSWVRQAPGKGLEWVSVISGSGGSTYYADSVKGRFTISRDNSKNTLYLQMNSLRAEDTAVYYCARGDDYGDDYYYYGMDVWGQGTTVTVSS VL: not shown | 55 | 1.5 |  |  |  |  | 
